The text below walks through data of paper PMC10011603, “TRAK adaptors regulate the recruitment and activation of dynein and kinesin in mitochondrial transport” (Nature Communications, 2023).

The target of test [1] is T1, full-length human kinesin-1 heavy chain (KIF5B-GFP-SNAPf) (human, UniProt P33176 1-963, fluorescent dye in motility assays (LD555-kinesin, Alexa488-kinesin)).
T1 construct: kinesin-1 heavy chain KIF5B, human, amino acids 1-963, full length; source: baculovirus-infected SF9 cells, purified (IgG Sepharose, TEV protease); not shown: His6-ZZ, N-terminal, cleaved; GFP, C-terminal, kept; SNAPf, C-terminal, kept
T1 sequence (looked up): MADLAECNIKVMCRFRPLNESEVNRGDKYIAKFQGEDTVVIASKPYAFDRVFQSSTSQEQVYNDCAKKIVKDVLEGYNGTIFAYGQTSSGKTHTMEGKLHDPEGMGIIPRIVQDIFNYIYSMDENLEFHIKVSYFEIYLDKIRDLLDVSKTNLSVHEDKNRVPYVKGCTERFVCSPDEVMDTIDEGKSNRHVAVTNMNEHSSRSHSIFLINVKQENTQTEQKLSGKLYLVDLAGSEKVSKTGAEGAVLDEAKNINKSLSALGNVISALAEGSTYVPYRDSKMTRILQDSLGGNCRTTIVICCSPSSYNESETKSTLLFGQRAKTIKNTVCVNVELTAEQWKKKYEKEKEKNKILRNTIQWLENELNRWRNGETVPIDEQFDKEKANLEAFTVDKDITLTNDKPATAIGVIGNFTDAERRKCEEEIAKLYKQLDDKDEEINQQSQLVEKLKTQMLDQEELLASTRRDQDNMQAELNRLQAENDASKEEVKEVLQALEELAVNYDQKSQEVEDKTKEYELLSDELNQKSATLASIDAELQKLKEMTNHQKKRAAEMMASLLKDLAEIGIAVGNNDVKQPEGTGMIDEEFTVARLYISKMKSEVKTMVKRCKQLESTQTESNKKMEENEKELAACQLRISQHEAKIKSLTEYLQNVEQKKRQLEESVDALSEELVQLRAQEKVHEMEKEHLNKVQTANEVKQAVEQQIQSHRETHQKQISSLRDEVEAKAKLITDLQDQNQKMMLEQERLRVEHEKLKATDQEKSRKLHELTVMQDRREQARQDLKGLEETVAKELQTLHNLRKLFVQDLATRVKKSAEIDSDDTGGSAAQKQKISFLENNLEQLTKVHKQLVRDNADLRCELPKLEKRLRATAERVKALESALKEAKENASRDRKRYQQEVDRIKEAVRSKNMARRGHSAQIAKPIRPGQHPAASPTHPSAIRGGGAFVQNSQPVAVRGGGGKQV
Kind of test: single-molecule TIRF colocalisation on microtubules; two-colour imaging of labeled kinesin and labeled TRAK constructs on surface-immobilized MTs, 0-50 nM MAP7, 1 mM Mg·ATP; also with 2 mM Ca2+. As to conditions: both partners purified.

The target of test [2] is T1, full-length human kinesin-1 heavy chain …. Kind of test: cell-based or functional assay.
Test [3] shares this target. Kind of test: single-molecule TIRF colocalisation on microtubules; three-colour imaging of Alexa488-KIF5B, LD555-TRAK1 1-532 (or full-length TRAK1) and LD655-Miro1 1-592; 10 nM MAP7; 0, 0.1 and 2 mM Ca2+. The following applies: both partners purified.
The target of test [4] is T2, Miro1^1–592 (Miro1^1–592-SNAP-psc-StrepII) (human, UniProt Q8IXI2 1-592, LD655 dye on the SNAP tag in motility assays).
T2 construct: mitochondrial Rho GTPase 1 (Miro1), human, residues 1-592, lacks the transmembrane domain; A PreScission site (psc) stands between SNAP and StrepII; no cleavage is told; also called Miro1^1–592-StrepII; Miro1^1–592-SNAPf-StrepII; source: purified (Streptactin Sepharose, eluted with desthiobiotin); not shown: SNAP, C-terminal, kept; StrepII, C-terminal, kept
T2 sequence (Q8IXI2 1-592): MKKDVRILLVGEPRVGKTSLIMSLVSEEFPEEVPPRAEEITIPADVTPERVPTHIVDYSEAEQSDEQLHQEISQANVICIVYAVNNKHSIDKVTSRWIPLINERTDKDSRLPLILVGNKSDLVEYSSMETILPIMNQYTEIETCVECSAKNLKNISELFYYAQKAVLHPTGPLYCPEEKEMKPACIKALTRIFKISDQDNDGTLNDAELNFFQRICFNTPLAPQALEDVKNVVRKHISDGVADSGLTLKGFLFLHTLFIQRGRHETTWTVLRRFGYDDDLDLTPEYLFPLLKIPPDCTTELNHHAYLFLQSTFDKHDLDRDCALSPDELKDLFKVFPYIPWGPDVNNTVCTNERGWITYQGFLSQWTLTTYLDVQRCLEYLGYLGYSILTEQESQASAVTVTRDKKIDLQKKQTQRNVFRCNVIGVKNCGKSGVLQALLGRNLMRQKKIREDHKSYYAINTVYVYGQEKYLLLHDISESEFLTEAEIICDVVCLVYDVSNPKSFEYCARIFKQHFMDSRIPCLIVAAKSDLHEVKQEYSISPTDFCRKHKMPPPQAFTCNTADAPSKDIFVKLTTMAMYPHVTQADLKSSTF
The test is described as above. The following applies: both partners purified.

B1: TRAK1^1–400 (domain or fragment, human, UniProt Q9UPV9 1-400, looked up)
chain: MALVFQFGQPVRAQPLPGLCHGKLIRTNACDVCNSTDLPEVEIISLLEEQLPHYKLRADTIYGYDHDDWLHTPLISPDANIDLTTEQIEETLKYFLLCAERVGQMTKTYNDIDAVTRLLEEKERDLELAARIGQSLLKKNKTLTERNELLEEQVEHIREEVSQLRHELSMKDELLQFYTSAAEESEPESVCSTPLKRNESSSSVQNYFHLDSLQKKLKDLEEENVVLRSEASQLKTETITYEEKEQQLVNDCVKELRDANVQIASISEELAKKTEDAARQQEEITHLLSQIVDLQKKAKACAVENEELVQHLGAAKDAQRQLTAELRELEDKYAECMEMLHEAQEELKNLRNKTMPNTTSRRYHSLGLFPMDSLAAEIEGTMRKELQLEEAESPDITHQK
modifications: LD555 or LD655 dye on the SNAP-tag in motility assays
notes: TRAK1, human, residues 1-400; full length printed as 1-953; also called T1^1–400; N-terminal coiled coil of TRAK1 with CC1 box and Spindly motif; source: baculovirus-infected SF9 cells, purified (IgG Sepharose, TEV protease); not shown: His6-ZZ, N-terminal, cleaved; SNAP-tag or GFP, C-terminal, kept
For B1, the binding result in test [1] is recorded as “binds”.

B2: full-length TRAK1 (TRAK1^1–953) (natural protein, human, UniProt Q9UPV9 1-953, looked up)
chain: MALVFQFGQPVRAQPLPGLCHGKLIRTNACDVCNSTDLPEVEIISLLEEQLPHYKLRADTIYGYDHDDWLHTPLISPDANIDLTTEQIEETLKYFLLCAERVGQMTKTYNDIDAVTRLLEEKERDLELAARIGQSLLKKNKTLTERNELLEEQVEHIREEVSQLRHELSMKDELLQFYTSAAEESEPESVCSTPLKRNESSSSVQNYFHLDSLQKKLKDLEEENVVLRSEASQLKTETITYEEKEQQLVNDCVKELRDANVQIASISEELAKKTEDAARQQEEITHLLSQIVDLQKKAKACAVENEELVQHLGAAKDAQRQLTAELRELEDKYAECMEMLHEAQEELKNLRNKTMPNTTSRRYHSLGLFPMDSLAAEIEGTMRKELQLEEAESPDITHQKRVFETVRNINQVVKQRSLTPSPMNIPGSNQSSAMNSLLSSCVSTPRSSFYGSDIGNVVLDNKTNSIILETEAADLGNDERSKKPGTPGTPGSHDLETALRRLSLRRENYLSERRFFEEEQERKLQELAEKGELRSGSLTPTESIMSLGTHSRFSEFTGFSGMSFSSRSYLPEKLQIVKPLEGSATLHHWQQLAQPHLGGILDPRPGVVTKGFRTLDVDLDEVYCLNDFEEDDTGDHISLPRLATSTPVQHPETSAHHPGKCMSQTNSTFTFTTCRILHPSDELTRVTPSLNSAPTPACGSTSHLKSTPVATPCTPRRLSLAESFTNTRESTTTMSTSLGLVWLLKERGISAAVYDPQSWDRAGRGSLLHSYTPKMAVIPSTPPNSPMQTPTSSPPSFEFKCTSPPYDNFLASKPASSILREVREKNVRSSESQTDVSVSNLNLVDKVRRFGVAKVVNSGRAHVPTLTEEQGPLLCGPPGPAPALVPRGLVPEGLPLRCPTVTSAIGGLQLNSGIRRNRSFPTMVGSSMQMKAPVTLTSGILMGAKLSKQTSLR
notes: TRAK1, human, residues 1-953, full length; source: HEK 293 F GNTI-/- cells, PEI transfection, purified (TRAK purification procedure); not shown: His6-ZZ, N-terminal, cleaved; SNAP-tag or GFP, C-terminal, kept
With B2, in test [1], the binding result is listed as “binds”.

B3: TRAK1^1–360 (domain or fragment, human, UniProt Q9UPV9 1-360, looked up)
chain: MALVFQFGQPVRAQPLPGLCHGKLIRTNACDVCNSTDLPEVEIISLLEEQLPHYKLRADTIYGYDHDDWLHTPLISPDANIDLTTEQIEETLKYFLLCAERVGQMTKTYNDIDAVTRLLEEKERDLELAARIGQSLLKKNKTLTERNELLEEQVEHIREEVSQLRHELSMKDELLQFYTSAAEESEPESVCSTPLKRNESSSSVQNYFHLDSLQKKLKDLEEENVVLRSEASQLKTETITYEEKEQQLVNDCVKELRDANVQIASISEELAKKTEDAARQQEEITHLLSQIVDLQKKAKACAVENEELVQHLGAAKDAQRQLTAELRELEDKYAECMEMLHEAQEELKNLRNKTMPNTTS
modifications: LD555 or LD655 dye on the SNAP-tag in motility assays
Take B3: the “kinesin landing rate on MTs in the presence of MAP7, 5-20 nM TRAK1 1-360 against no TRAK” value in test [2] turned out to be 5 fold.

B4: TRAK1^1–532 (domain or fragment, human, UniProt Q9UPV9 1-532, looked up)
chain: MALVFQFGQPVRAQPLPGLCHGKLIRTNACDVCNSTDLPEVEIISLLEEQLPHYKLRADTIYGYDHDDWLHTPLISPDANIDLTTEQIEETLKYFLLCAERVGQMTKTYNDIDAVTRLLEEKERDLELAARIGQSLLKKNKTLTERNELLEEQVEHIREEVSQLRHELSMKDELLQFYTSAAEESEPESVCSTPLKRNESSSSVQNYFHLDSLQKKLKDLEEENVVLRSEASQLKTETITYEEKEQQLVNDCVKELRDANVQIASISEELAKKTEDAARQQEEITHLLSQIVDLQKKAKACAVENEELVQHLGAAKDAQRQLTAELRELEDKYAECMEMLHEAQEELKNLRNKTMPNTTSRRYHSLGLFPMDSLAAEIEGTMRKELQLEEAESPDITHQKRVFETVRNINQVVKQRSLTPSPMNIPGSNQSSAMNSLLSSCVSTPRSSFYGSDIGNVVLDNKTNSIILETEAADLGNDERSKKPGTPGTPGSHDLETALRRLSLRRENYLSERRFFEEEQERKLQELAEKGE
modifications: LD555 dye on the SNAP-tag in motility assays
notes: full length printed as 1-953; also called TRAK1 construct containing the coiled coils and part of the C-terminal domain; source: baculovirus-infected SF9 cells, purified (IgG Sepharose, TEV protease); not shown: His6-ZZ, N-terminal, cleaved; SNAP-tag or GFP, C-terminal, kept
Turning to B4, the binding result in test [3] and in test [4] was “binds” throughout.

B5: full-length TRAK2 (TRAK2^1–914) (natural protein, human, UniProt O60296 1-914, looked up)
chain: MSQSQNAIFTSPTGEENLMNSNHRDSESITDVCSNEDLPEVELVSLLEEQLPQYRLKVDTLFLYENQDWTQSPHQRQHASDALSPVLAEETFRYMILGTDRVEQMTKTYNDIDMVTHLLAERDRDLELAARIGQALLKRNHVLSEQNESLEEQLGQAFDQVNQLQHELCKKDELLRIVSIASEESETDSSCSTPLRFNESFSLSQGLLQLEMLQEKLKELEEENMALRSKACHIKTETVTYEEKEQQLVSDCVKELRETNAQMSRMTEELSGKSDELIRYQEELSSLLSQIVDLQHKLKEHVIEKEELKLHLQASKDAQRQLTMELHELQDRNMECLGMLHESQEEIKELRSRSGPTAHLYFSQSYGAFTGESLAAEIEGTMRKKLSLDEESSLFKQKAQQKRVFDTVRIANDTRGRSISFPALLPIPGSNRSSVIMTAKPFESGLQQTEDKSLLNQGSSSEEVAGSSQKMGQPGPSGDSDLATALHRLSLRRQNYLSEKQFFAEEWQRKIQVLADQKEGVSGCVTPTESLASLCTTQSEITDLSSASCLRGFMPEKLQIVKPLEGSQTLYHWQQLAQPNLGTILDPRPGVITKGFTQLPGDAIYHISDLEEDEEEGITFQVQQPLEVEEKLSTSKPVTGIFLPPITSAGGPVTVATANPGKCLSCTNSTFTFTTCRILHPSDITQVTPSSGFPSLSCGSSGSSSSNTAVNSPALSYRLSIGESITNRRDSTTTFSSTMSLAKLLQERGISAKVYHSPISENPLQPLPKSLAIPSTPPNSPSHSPCPSPLPFEPRVHLSENFLASRPAETFLQEMYGLRPSRNPPDVGQLKMNLVDRLKRLGIARVVKNPGAQENGRCQEAEIGPQKPDSAVYLNSGSSLLGGLRRNQSLPVIMGSFAAPVCTSSPKMGVLKED
notes: TRAK2, human, residues 1-914, full length; source: HEK 293 F GNTI-/- cells, PEI transfection, purified (TRAK purification procedure); not shown: His6-ZZ, N-terminal, cleaved; SNAP-tag or GFP, C-terminal, kept
For the molecule B5, the binding result in test [1] is reported as “binds”.

B6: TRAK2^1–400 (domain or fragment, human, UniProt O60296 1-400, looked up)
chain: MSQSQNAIFTSPTGEENLMNSNHRDSESITDVCSNEDLPEVELVSLLEEQLPQYRLKVDTLFLYENQDWTQSPHQRQHASDALSPVLAEETFRYMILGTDRVEQMTKTYNDIDMVTHLLAERDRDLELAARIGQALLKRNHVLSEQNESLEEQLGQAFDQVNQLQHELCKKDELLRIVSIASEESETDSSCSTPLRFNESFSLSQGLLQLEMLQEKLKELEEENMALRSKACHIKTETVTYEEKEQQLVSDCVKELRETNAQMSRMTEELSGKSDELIRYQEELSSLLSQIVDLQHKLKEHVIEKEELKLHLQASKDAQRQLTMELHELQDRNMECLGMLHESQEEIKELRSRSGPTAHLYFSQSYGAFTGESLAAEIEGTMRKKLSLDEESSLFKQKAQ
modifications: LD555 or LD655 dye on the SNAP-tag in motility assays
notes: TRAK2, human, residues 1-400; full length printed as 1-914; also called T2^1–400; N-terminal coiled coil of TRAK2 with CC1 box and Spindly motif; source: baculovirus-infected SF9 cells, purified (IgG Sepharose, TEV protease); not shown: His6-ZZ, N-terminal, cleaved; SNAP-tag or GFP, C-terminal, kept
On to B6, for which the binding result in test [1] was “binds”.
